This is an account of results in article PMC7752914.

In test [1] the target is α2βγ heterotetramer of wild-type HsIDH3 (human) (UniProt P50213). Nature of the test: SEC-MALS; high concentration (12 mg/ml); Superdex 200 10/300 GL, 24 °C, 10 mM HEPES pH 7.4, 200 mM NaCl, 5 mM β-ME.
Test [2] has the same target. The test can be described thus: SEC-MALS; low concentration (2 mg/ml); Superdex 200 10/300 GL, 24 °C, 10 mM HEPES pH 7.4, 200 mM NaCl, 5 mM β-ME.

On to “α2βγ heterotetramer of wild-type HsIDH3 (from UniProt P50213 28-366; O43837 35-385; P51553 40-393) (complex)”, for which the stoichiometry N (heterotetramers in the heterooctamer) in test [1] and in test [2] was 2 in each case.
